Results on 6 molecules are retold here after publication PMC7862292, “Crystal structures of non-oxidative decarboxylases reveal a new mechanism of action with a catalytic dyad and structural twists” (Scientific Reports, 2021).

The target of one assay is T1, AGDC1 (Blastobotrys adeninivorans, UniProt A0A060TAG5).
T1 construct: synthetic gene in pET15b, E. coli C41, N-terminal His6 tag removed by thrombin; trimer with central K+ and peripheral Co2+ sites
Nature of the assay: UV decrease of gallic acid at […] nm. The settings on record: read-out: % inhibition at 0.5 mM. The assay is classed as biochemical.

The target of assay [1] is T2, PPP2 (Madurella mycetomatis, UniProt A0A175WC91).
T2 construct: gene MMYC01_201259; synthetic gene in pET15b, E. coli C41, N-terminal His6 tag removed by thrombin; trimer with central K+; no cobalt site
Nature of the assay: UV decrease of substrate at […] nm. Type of assay: biochemical. The settings on record: 0.5 mM substrate, 50 mM KPi pH 6.5, RT, 160 ug/ml enzyme; decarboxylation to pyrogallol, weaker than protocatechuic acid.

Assay [2] addresses T2, PPP2. Nature of the assay: UV decrease of substrate at […] nm. The assay is classed as biochemical. The settings on record: 0.5 mM substrate, 50 mM KPi pH 6.5, RT, 160 ug/ml enzyme; decarboxylation to catechol.
The target in assay [3] is AGDC1 E88A mutant (Arxula adenivorans). Nature of the assay: SEC; Superdex 200 10/300; with (25 mM Tris 7.5, 50 mM KCl, 100 mM NaCl) or without (25 mM Tris 7.5, 100 mM NaCl) potassium; Bio-rad Gel Filtration Standard; all proteins eluted as a single peak. In general terms: Size exclusion chromatography separates by hydrodynamic size, large species first.
The target in assay [4] is Pea Pathogenity Protein (PPP2) from Madurella mycetomatis (Madurella mycetomatis). The assay is described as above.
Assay [5] shares this target. Nature of the assay: crystal structure; hanging drop vapor diffusion, protein 10 mg/ml in 20 mM Tris pH 7.5, with or without 5 mM nitrocatechol alone or with 0.5 mM CoCl2; AGDC1 in PEG 3350, 0.2 M potassium salt, MES; PPP2 in PEG 3350, 0.2 M calcium chloride, MES pH 5.5.
For assay [6], the target named is gallic acid decarboxylase AGDC1 from Arxula adenivorans (Arxula adenivorans). Nature of the assay: SEC; Superdex 200 10/300; with (25 mM Tris 7.5, 50 mM KCl, 100 mM NaCl) or without (25 mM Tris 7.5, 100 mM NaCl) potassium; Bio-rad Gel Filtration Standard; all proteins eluted as a single peak.
The target is the same in assay [7]. Nature of the assay: crystal structure; hanging drop vapor diffusion, protein 10 mg/ml in 20 mM Tris pH 7.5, with or without 5 mM nitrocatechol alone or with 0.5 mM CoCl2; AGDC1 in PEG 3350, 0.2 M potassium salt, MES; PPP2 in PEG 3350, 0.2 M calcium chloride, MES pH 5.5.

In general, inhibition refers to how much of the control response was suppressed. A word on the stoichiometry N: it is the number of molecules, sites or subunits per partner or assembly.

T1 sequence (A0A060TAG5 entry or part of it): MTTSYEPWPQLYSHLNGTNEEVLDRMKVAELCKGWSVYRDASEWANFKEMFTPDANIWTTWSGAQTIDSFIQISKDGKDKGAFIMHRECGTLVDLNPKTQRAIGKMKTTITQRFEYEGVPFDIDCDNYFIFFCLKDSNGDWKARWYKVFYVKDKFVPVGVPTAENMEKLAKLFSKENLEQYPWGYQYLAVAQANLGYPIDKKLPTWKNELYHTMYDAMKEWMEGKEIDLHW

`O=[N+]([O-])c1ccc(O)c(O)c1` [4-nitrocatechol]: the inhibition at 500 µM at AGDC1 amounted to 98%.
Regarding `O=C(O)c1cc(O)c(O)c(O)c1` [gallic acid], the “UV decrease of substrate at 259 nm” value on PPP2 [1] is given as “PPP2 activity with PCA was ~ sevenfold higher than with GA”.
Take `O=C(O)c1ccc(O)c(O)c1` [protocatechuic acid]: the “UV decrease of substrate at 250 nm” value at PPP2 [2] is on record as “PPP2 activity with PCA was ~ sevenfold higher than with GA”.
In assay [3], AGDC1 E88A mutant (enzyme) displayed a stoichiometry N of 3.
As for “Pea Pathogenity Protein (PPP2) from Madurella mycetomatis (enzyme)”, the stoichiometry N in assay [4] and in assay [5] was 3 in each case.
In the case of “gallic acid decarboxylase AGDC1 from Arxula adenivorans (enzyme)”, the stoichiometry N in assay [6] and in assay [7] was 3 in each case.
